According to publication PMC5686944:

Molecular target: plasminogen (UniProt P00747)
Sequence of UniProt P00747 (P00747 20-810): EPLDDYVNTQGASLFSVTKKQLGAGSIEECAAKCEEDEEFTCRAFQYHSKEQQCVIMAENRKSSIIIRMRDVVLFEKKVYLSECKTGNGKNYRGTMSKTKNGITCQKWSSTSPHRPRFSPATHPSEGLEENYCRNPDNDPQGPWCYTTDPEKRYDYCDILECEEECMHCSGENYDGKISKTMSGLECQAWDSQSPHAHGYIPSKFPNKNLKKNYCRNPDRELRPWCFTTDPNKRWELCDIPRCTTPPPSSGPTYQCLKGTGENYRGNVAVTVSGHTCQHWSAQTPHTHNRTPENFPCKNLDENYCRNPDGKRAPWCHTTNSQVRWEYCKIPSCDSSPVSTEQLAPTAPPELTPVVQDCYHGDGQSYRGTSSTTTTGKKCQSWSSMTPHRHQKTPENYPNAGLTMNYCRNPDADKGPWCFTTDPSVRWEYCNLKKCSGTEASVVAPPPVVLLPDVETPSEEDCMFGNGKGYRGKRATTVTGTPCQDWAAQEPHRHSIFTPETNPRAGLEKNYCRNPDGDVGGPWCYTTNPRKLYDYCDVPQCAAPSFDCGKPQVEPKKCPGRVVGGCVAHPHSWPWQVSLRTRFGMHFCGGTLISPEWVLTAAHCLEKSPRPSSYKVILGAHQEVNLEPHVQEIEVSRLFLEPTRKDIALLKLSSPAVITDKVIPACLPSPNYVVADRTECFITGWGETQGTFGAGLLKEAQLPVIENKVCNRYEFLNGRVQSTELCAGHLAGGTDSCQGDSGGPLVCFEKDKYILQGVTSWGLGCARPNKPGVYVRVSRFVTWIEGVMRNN

Substance: wild-type staphylokinase (Sak) (natural protein)
- fibrin plate assay, diameter of halo pattern (5.0 x 10^3 IU unmodified Sak, 310 K, 20 h): 25.4 mm
